Assays:
Experiment in all cases: cell-based or functional assay
[1] = biological target: Env of HIV-1 pseudovirus 1012_11_TC21_3257 (HIV-1)
[2] = biological target: Env of HIV-1 pseudovirus 191084 B7-19 (HIV-1)
[3] = biological target: Env of HIV-1 pseudovirus 191955_A11 (HIV-1)
[4] = biological target: Env of HIV-1 pseudovirus 246F C1G (HIV-1)
[5] = biological target: Env of HIV-1 pseudovirus BF1266.431a (HIV-1)
[6] = biological target: Env of HIV-1 pseudovirus CAAN5342.A2 (HIV-1)
[7] = biological target: Env of HIV-1 pseudovirus CAP210.2.00.E8 (HIV-1)
[8] = biological target: Env of HIV-1 pseudovirus CAP45.2.00.G3 (HIV-1)
[9] = biological target: Env of HIV-1 pseudovirus CNE19 (HIV-1)
[10] = biological target: Env of HIV-1 pseudovirus CNE53 (HIV-1)
[11] = biological target: Env of HIV-1 pseudovirus Ce1176_A3 (HIV-1)
[12] = biological target: Env of HIV-1 pseudovirus Ce2060_G9 (HIV-1)
[13] = biological target: Env of HIV-1 pseudovirus Du156.12 (HIV-1)
[14] = biological target: Env of HIV-1 pseudovirus HIV-16055-2.3 (HIV-1)
[15] = biological target: Env of HIV-1 pseudovirus Q23.17 (HIV-1)
[16] = biological target: Env of HIV-1 pseudovirus Q461.e2 (HIV-1)
[17] = biological target: Env of HIV-1 pseudovirus Q842.d12 (HIV-1)
[18] = biological target: Env of HIV-1 pseudovirus T250-4 (HIV-1)
[19] = biological target: Env of HIV-1 pseudovirus ZM197M.PB7 (HIV-1)
[20] = biological target: Env of HIV-1 pseudovirus ZM247v1(Rev-) (HIV-1)
[21] = biological target: HIV-1 Env pseudovirus 231965.c01 (HIV-1)
[22] = biological target: HIV-1 Env pseudovirus 231966.c02 (HIV-1)
[23] = biological target: HIV-1 Env pseudovirus 620345.c01 (HIV-1)
[24] = biological target: HIV-1 Env pseudovirus 6540.v4.c1 (HIV-1)
[25] = biological target: HIV-1 Env pseudovirus C1080.c03 (HIV-1)
[26] = biological target: HIV-1 Env pseudovirus C4118.c09 (HIV-1)
[27] = biological target: HIV-1 Env pseudovirus T250-4 (HIV-1)
[28] = biological target: HIV-1 Env pseudovirus T251-18 (HIV-1)
[29] = biological target: HIV-1 Env pseudovirus X1193_c1 (HIV-1)
[30] = biological target: HIV-1 Env pseudovirus X1632_S2_B10 (HIV-1)

10E8 (antibody)
IC50 [1]: 0.244 µg/mL | IC80 [1]: 4.21 µg/mL | IC50 [2]: 5.16 µg/mL | IC80 [2]: > 10 µg/mL | IC50 [3]: 0.68 µg/mL | IC80 [3]: 3.53 µg/mL | IC50 [4]: 2.22 µg/mL | IC80 [4]: 9.94 µg/mL | IC50 [5]: 2.69 µg/mL | IC80 [5]: > 10 µg/mL | IC50 [6]: 1.28 µg/mL | IC80 [6]: 9.28 µg/mL | IC50 [7]: 0.798 µg/mL | IC80 [7]: 3.89 µg/mL | IC50 [8]: 1.82 µg/mL | IC80 [8]: > 10 µg/mL | IC50 [9]: 0.666 µg/mL | IC80 [9]: 6.49 µg/mL | IC50 [10]: 0.326 µg/mL | IC80 [10]: 1.92 µg/mL | IC50 [11]: 0.867 µg/mL | IC80 [11]: 3.92 µg/mL | IC50 [12]: 3.52 µg/mL | IC80 [12]: > 10 µg/mL | IC50 [13]: 0.034 µg/mL | IC80 [13]: 0.144 µg/mL | IC50 [14]: 0.722 µg/mL | IC80 [14]: 6.5 µg/mL | IC50 [15]: 1.64 µg/mL | IC80 [15]: 7.04 µg/mL | IC50 [16]: 2.11 µg/mL | IC80 [16]: > 10 µg/mL | IC50 [17]: 4.19 µg/mL | IC80 [17]: > 10 µg/mL | IC50 [18]: 1.35 µg/mL | IC80 [18]: 8.13 µg/mL | IC50 [19]: 0.148 µg/mL | IC80 [19]: 0.802 µg/mL | IC50 [20]: 0.506 µg/mL | IC80 [20]: 6.75 µg/mL

PG9 (antibody)
IC50 [1]: 0.172 µg/mL | IC80 [1]: 0.605 µg/mL | IC50 [2]: 0.043 µg/mL | IC80 [2]: 0.202 µg/mL | IC50 [3]: 0.053 µg/mL | IC80 [3]: 0.154 µg/mL | IC50 [4]: > 50 µg/mL | IC80 [4]: > 50 µg/mL | IC50 [5]: 0.026 µg/mL | IC80 [5]: 0.088 µg/mL | IC50 [6]: 4.6 µg/mL | IC80 [6]: 27 µg/mL | IC50 [7]: 0.04 µg/mL | IC80 [7]: 0.173 µg/mL | IC50 [8]: 0.007 µg/mL | IC80 [8]: 0.029 µg/mL | IC50 [9]: 0.024 µg/mL | IC80 [9]: 0.146 µg/mL | IC50 [10]: 0.131 µg/mL | IC80 [10]: 0.6 µg/mL | IC50 [11]: 0.014 µg/mL | IC80 [11]: 0.044 µg/mL | IC50 [12]: 0.045 µg/mL | IC80 [12]: 0.172 µg/mL | IC50 [13]: 0.026 µg/mL | IC80 [13]: 0.19 µg/mL | IC50 [14]: 0.021 µg/mL | IC80 [14]: 0.06 µg/mL | IC50 [15]: 0.027 µg/mL | IC80 [15]: 0.082 µg/mL | IC50 [16]: 1.48 µg/mL | IC80 [16]: 8.72 µg/mL | IC50 [17]: 0.023 µg/mL | IC80 [17]: 0.081 µg/mL | IC50 [18]: 0.005 µg/mL | IC80 [18]: 0.014 µg/mL | IC50 [19]: 0.899 µg/mL | IC80 [19]: 4.52 µg/mL | IC50 [20]: 0.112 µg/mL | IC80 [20]: 0.323 µg/mL

PG16 (antibody)
IC50 [1]: 0.03 µg/mL | IC80 [1]: 0.219 µg/mL | IC50 [2]: 0.024 µg/mL | IC80 [2]: 0.238 µg/mL | IC50 [3]: 0.009 µg/mL | IC80 [3]: 0.042 µg/mL | IC50 [4]: > 50 µg/mL | IC80 [4]: > 50 µg/mL | IC50 [5]: 0.003 µg/mL | IC80 [5]: 0.009 µg/mL | IC50 [6]: 1.83 µg/mL | IC80 [6]: 33 µg/mL | IC50 [7]: 0.01 µg/mL | IC80 [7]: 0.042 µg/mL | IC50 [8]: 0.001 µg/mL | IC80 [8]: 0.003 µg/mL | IC50 [9]: 0.024 µg/mL | IC80 [9]: 3.07 µg/mL | IC50 [10]: > 50 µg/mL | IC80 [10]: > 50 µg/mL | IC50 [11]: 0.003 µg/mL | IC80 [11]: 0.011 µg/mL | IC50 [12]: 0.075 µg/mL | IC80 [12]: 1.71 µg/mL | IC50 [13]: 0.006 µg/mL | IC80 [13]: 0.026 µg/mL | IC50 [14]: 0.17 µg/mL | IC80 [14]: > 0.25 µg/mL | IC50 [15]: 0.008 µg/mL | IC80 [15]: 0.043 µg/mL | IC50 [16]: 1.75 µg/mL | IC80 [16]: > 50 µg/mL | IC50 [17]: 0.032 µg/mL | IC80 [17]: > 0.25 µg/mL | IC50 [18]: 0.002 µg/mL | IC80 [18]: 0.005 µg/mL | IC50 [19]: 1.5 µg/mL | IC80 [19]: 22.8 µg/mL | IC50 [20]: 0.016 µg/mL | IC80 [20]: 0.189 µg/mL

VRC07 (antibody)
IC50 (Titer in TZM.bl cells) [21]: 0.085 µg/mL | IC80 (Titer in TZM.bl cells) [21]: 0.263 µg/mL | IC50 (Titer in TZM.bl cells) [22]: 0.105 µg/mL | IC80 (Titer in TZM.bl cells) [22]: 0.471 µg/mL | IC50 (Titer in TZM.bl cells) [23]: > 50 µg/mL | IC80 (Titer in TZM.bl cells) [23]: > 50 µg/mL | IC50 (Titer in TZM.bl cells) [24]: > 50 µg/mL | IC80 (Titer in TZM.bl cells) [24]: > 50 µg/mL | IC50 (Titer in TZM.bl cells) [25]: 2.03 µg/mL | IC80 (Titer in TZM.bl cells) [25]: 8.25 µg/mL | IC50 (Titer in TZM.bl cells) [26]: 0.121 µg/mL | IC80 (Titer in TZM.bl cells) [26]: 0.444 µg/mL | IC50 (Titer in TZM.bl cells) [27]: > 50 µg/mL | IC80 (Titer in TZM.bl cells) [27]: > 50 µg/mL | IC50 (Titer in TZM.bl cells) [28]: 1.32 µg/mL | IC80 (Titer in TZM.bl cells) [28]: 6.49 µg/mL | IC50 (Titer in TZM.bl cells) [29]: 0.037 µg/mL | IC80 (Titer in TZM.bl cells) [29]: 0.249 µg/mL | IC50 (Titer in TZM.bl cells) [30]: 0.023 µg/mL | IC80 (Titer in TZM.bl cells) [30]: 0.107 µg/mL

Source: patent US20240117018A1
